Laboratory results taken from patent US20220372155A1 (LYVGEN BIOPHARMA, published 2022).

B1: TM553 (antibody, human IgG2, kappa)
heavy: QVQLVESGGGLVQPGGSLKLSCATSGFNFNDSFMNWVRQASGKGLEWVGQIRNKNYNYATYYTESLEGRVTISRDDSKNTAYLQMNSLKTEDTAVYYCTSYYYDGFADYFDYWGQGTTVTVSSASTKGPSVFPLAPCSRSTSESTAALGCLVKDYFPEPVTVSWNSGALTSGVHTFPAVLQSSGLYSLSSVVTVPSSNFGTQTYTCNVDHKPSNTKVDKTVERKCCVECPPCPAPPVAGPSVFLFPPKPKDTLMISRTPEVTCVVVDVSHEDPEVQFNWYVDGVEVHNAKTKPREEQFNSTFRVVSVLTVVHQDWLNGKEYKCKVSNKGLPAPIEKTISKTKGQPREPQVYTLPPSREEMTKNQVSLTCLVKGFYPSDIAVEWESNGQPENNYKTTPPMLDSDGSFFLYSKLTVDKSRWQQGNVFSCSVMHEALHNHYTQKSLSLSPG
light: DIQMTQSPSSLSASVGDRVTITCKASQNIYIYLNWYQQKPGKAPKLLIYNTNNLQTGVPSRFSGSGSGTDFTLTISSLQPEDFATYYCLQHSSRRTFGGGTKVEIKRTVAAPSVFIFPPSDEQLKSGTASVVCLLNNFYPREAKVQWKVDNALQSGNSQESVTEQDSKDSTYSLSSTLTLSKADYEKHKVYACEVTHQGLSSPVTKSFNRGEC
notes: VH-2/IgG2, VL-1/kappa
B2: LP3773 (antibody, human IgG1, kappa)
heavy: QVQLVESGGGLVQPGGSLKLSCATSGFNFNDSFMNWVRQASGKGLEWVGQIRNKNYNYATYYTESLEGRVTISRDDSKNTAYLQMNSLKTEDTAVYYCTSYYYDGFADYFDYWGQGTTVTVSSASTKGPSVFPLAPSSKSTSGGTAALGCLVKDYFPEPVTVSWNSGALTSGVHTFPAVLQSSGLYSLSSVVTVPSSSLGTQTYICNVNHKPSNTKVDKKVEPKSCDKTHTCPPCPAPELLGPSVFLFPPKPKDTLMISRTPEVTCVVVDVEHEDPEVKFNWYVDGVEVHNAKTKPREEQYNSTYRVVSVLTVLHQDWLNGKEYKCKVSNKALPAPIEKTISKAKGQPREPQVYTLPPSREEMTKNQVSLTCLVKGFYPSDIAVEWESNGQPENNYKTTPPVLDSDGSFFLYSKLTVDKSRWQQGNVFSCSVMHEALHNHYTQKSLSLSPG
light: DIQMTQSPSSLSASVGDRVTITCKASQNIYIYLNWYQQKPGKAPKLLIYNTNNLQTGVPSRFSGSGSGTDFTLTISSLQPEDFATYYCLQHSSRRTFGGGTKVEIKRTVAAPSVFIFPPSDEQLKSGTASVVCLLNNFYPREAKVQWKVDNALQSGNSQESVTEQDSKDSTYSLSSTLTLSKADYEKHKVYACEVTHQGLSSPVTKSFNRGEC
notes: VH-2/IgG1mut, VL-1/kappa
B3: TM550 (antibody, human IgG2, kappa, V domains shown)
VH: EVQLVESGGGLVQPGGSLKLSCAASGFNFNDSFMNWVRQASGKGLEWVGQIRNKNYNYATYYTESLEGRFTISRDDSKNTAYLQMNSLKTEDTAVYYCTRYYYDGFADYFDYWGQGTTVTVSS
VL: DIQMTQSPSSLSASVGDRVTITCKASQNIYIYLNWYQQKPGKAPKLLIYNTNNLQTGVPSRFSGSGSGTDFTLTISSLQPEDFATYYCLQHSSRRTFGGGTKVEIKR
notes: CDR grafted humanized LYV377
B4: Ly181 (antibody, human IgG2, kappa)
heavy: QVQLVESGGGLVQPGGSLKLSCATSGFNFNDYFMNWVRQASGKGLEWVGQIRNKNYNYATYYTESLEGRVTISRDDSKNTAYLQMNSLKTEDTAVYYCTSYYYDGFADYFDYWGQGTTVTVSSASTKGPSVFPLAPCSRSTSESTAALGCLVKDYFPEPVTVSWNSGALTSGVHTFPAVLQSSGLYSLSSVVTVPSSNFGTQTYTCNVDHKPSNTKVDKTVERKCCVECPPCPAPPVAGPSVFLFPPKPKDTLMISRTPEVTCVVVDVSHEDPEVQFNWYVDGVEVHNAKTKPREEQFNSTFRVVSVLTVVHQDWLNGKEYKCKVSNKGLPAPIEKTISKTKGQPREPQVYTLPPSREEMTKNQVSLTCLVKGFYPSDIAVEWESNGQPENNYKTTPPMLDSDGSFFLYSKLTVDKSRWQQGNVFSCSVMHEALHNHYTQKSLSLSPG
light: DIQMTQSPSSLSASVGDRVTITCKASQNIYIYLNWYQQKPGKAPKLLIYNTNNLQTGVPSRFSGSGSGTDFTLTISSLQPEDFATYYCLQHSSRRTFGGGTKVEIKRTVAAPSVFIFPPSDEQLKSGTASVVCLLNNFYPREAKVQWKVDNALQSGNSQESVTEQDSKDSTYSLSSTLTLSKADYEKHKVYACEVTHQGLSSPVTKSFNRGEC
notes: VH-2Y/IgG2, VL-1/kappa

What follows are binders tested against T1, human CD40 expressed on CHO cells (human, UniProt P25942 21-277) (assay: FACS, CHO cells).
T1 construct: whole, on cells; also used for the reporter cells over-expressing human CD40; also called cellular CD40; CHO-CD40 cells
T1 sequence (P25942 21-277): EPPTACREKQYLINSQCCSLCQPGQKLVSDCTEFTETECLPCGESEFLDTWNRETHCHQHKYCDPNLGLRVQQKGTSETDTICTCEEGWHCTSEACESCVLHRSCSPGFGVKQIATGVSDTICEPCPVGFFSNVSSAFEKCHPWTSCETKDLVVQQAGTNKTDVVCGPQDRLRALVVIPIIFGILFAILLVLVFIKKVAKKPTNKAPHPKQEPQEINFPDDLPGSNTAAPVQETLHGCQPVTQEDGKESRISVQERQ

Binding result, binds:
B1
B2
B3
B4
